Results published in patent publication US20230074436A1 (DENALI THERAPEUTICS, published 2023).
No end group written: not given here. *: point of attachment. Biotin = O=C1N[C@H]2[C@H](CS[C@H]2CCCCC(=O)*)N1

How the values were obtained:
[1] = biological target: T1, asyn_113-127_125A (human); test: Ala-scan peptide ELISA, row A, run 1
T1 construct: substitution is already in the entry; also called pep15
T1 peptide: Biotin-LEDMPVDPDNEAAEM

[2] = biological target: T2, asyn_113-127_118A (human); test: Ala-scan peptide ELISA, row A, run 1
T2 construct: substitution is already in the entry; also called pep7
T2 peptide: Biotin-LEDMPADPDNEAYEM

[3] = biological target: T3, asyn_113-127_124P (human); test: Ala-scan peptide ELISA, row A, run 1
T3 construct: substitution is already in the entry; also called pep14
T3 peptide: Biotin-LEDMPVDPDNEPYEM

[4] = biological target: T4, asyn_113-127_113A (human); test: Ala-scan peptide ELISA, row A, run 1
T4 construct: substitution is already in the entry; also called pep2
T4 peptide: Biotin-AEDMPVDPDNEAYEM

[5] = biological target: T5, asyn_113-127_119A (human); test: Ala-scan peptide ELISA, row A, run 1
T5 construct: substitution is already in the entry; also called pep8
T5 peptide: Biotin-LEDMPVAPDNEAYEM

[6] = biological target: T6, asyn_113-127_123A (human); test: Ala-scan peptide ELISA, row A, run 1
T6 construct: substitution is already in the entry; also called pep12
T6 peptide: Biotin-LEDMPVDPDNAAYEM

[7] = biological target: T7, asyn_113-127_122A (human); test: Ala-scan peptide ELISA, row A, run 1
T7 construct: substitution is already in the entry; also called pep11
T7 peptide: Biotin-LEDMPVDPDAEAYEM

[8] = biological target: T8, asyn_113-127_126A (human); test: Ala-scan peptide ELISA, row A, run 1
T8 construct: substitution is already in the entry; also called pep16
T8 peptide: Biotin-LEDMPVDPDNEAYAM

[9] = biological target: T9, asyn_113-127_115A (human); test: Ala-scan peptide ELISA, row A, run 1
T9 construct: substitution is already in the entry; also called pep4
T9 peptide: Biotin-LEAMPVDPDNEAYEM

[10] = biological target: T10, asyn_113-127_117A (human); test: Ala-scan peptide ELISA, row A, run 1
T10 construct: substitution is already in the entry; also called pep6
T10 peptide: Biotin-LEDMAVDPDNEAYEM

[11] = biological target: T11, asyn_113-127_121A (human); test: Ala-scan peptide ELISA, row A, run 1
T11 construct: substitution is already in the entry; also called pep10
T11 peptide: Biotin-LEDMPVDPANEAYEM

[12] = biological target: T12, asyn_113-127 (human); test: Ala-scan peptide ELISA, row A, run 1
T12 construct: also called pep1
T12 peptide: Biotin-LEDMPVDPDNEAYEM

[13] = biological target: T13, asyn_113-127_127A (human); test: Ala-scan peptide ELISA, row A, run 1
T13 construct: substitution is already in the entry; also called pep17
T13 peptide: Biotin-LEDMPVDPDNEAYEA

[14] = biological target: T14, asyn_113-127_124G (human); test: Ala-scan peptide ELISA, row A, run 1
T14 construct: substitution is already in the entry; also called pep13
T14 peptide: Biotin-LEDMPVDPDNEGYEM

[15] = biological target: human alpha-synuclein monomer (human, UniProt P37840 1-140); test: direct ELISA, plate coated with 1 µg/mL recombinant human alpha-synuclein, antibody titrated, anti-rat HRP, A450
[16] = biological target: T1, asyn_113-127_125A; test: Ala-scan peptide ELISA, row H, run 1
[17] = biological target: T2, asyn_113-127_118A; test: Ala-scan peptide ELISA, row H, run 1
[18] = biological target: T3, asyn_113-127_124P; test: Ala-scan peptide ELISA, row H, run 1
[19] = biological target: T4, asyn_113-127_113A; test: Ala-scan peptide ELISA, row H, run 1
[20] = biological target: T5, asyn_113-127_119A; test: Ala-scan peptide ELISA, row H, run 1
[21] = biological target: T6, asyn_113-127_123A; test: Ala-scan peptide ELISA, row H, run 1
[22] = biological target: T7, asyn_113-127_122A; test: Ala-scan peptide ELISA, row H, run 1
[23] = biological target: T8, asyn_113-127_126A; test: Ala-scan peptide ELISA, row H, run 1
[24] = biological target: T15, asyn_113-127_114A (human); test: Ala-scan peptide ELISA, row H, run 1
T15 construct: substitution is already in the entry; also called pep3
T15 peptide: Biotin-LADMPVDPDNEAYEM

[25] = biological target: T9, asyn_113-127_115A; test: Ala-scan peptide ELISA, row H, run 1
[26] = biological target: T10, asyn_113-127_117A; test: Ala-scan peptide ELISA, row H, run 1
[27] = biological target: T16, asyn_113-127_116A (human); test: Ala-scan peptide ELISA, row H, run 1
T16 construct: substitution is already in the entry; also called pep5
T16 peptide: Biotin-LEDAPVDPDNEAYEM

[28] = biological target: T11, asyn_113-127_121A; test: Ala-scan peptide ELISA, row H, run 1
[29] = biological target: biotinylated human alpha-synuclein (human, UniProt P37840 1-140); test: Ala-scan peptide ELISA, row H, run 1
[30] = biological target: T12, asyn_113-127; test: Ala-scan peptide ELISA, row H, run 1
[31] = biological target: T13, asyn_113-127_127A; test: Ala-scan peptide ELISA, row H, run 1
[32] = biological target: T14, asyn_113-127_124G; test: Ala-scan peptide ELISA, row H, run 1
[33] = biological target: T17, asyn_113-127_120A (human); test: Ala-scan peptide ELISA, row H, run 1
T17 construct: substitution is already in the entry; also called pep9
T17 peptide: Biotin-LEDMPVDADNEAYEM

[34] = biological target: T18, alpha-synuclein peptide 95-140 (human); test: peptide ELISA, coated fragment
T18 construct: synthetic peptide coated on plate

[35] = biological target: T19, alpha-synuclein peptide 61-140 (human); test: peptide ELISA, coated fragment
T19 construct: synthetic peptide coated on plate

A450 [1]: 0.053 OD | A450 [2]: 0.504 OD | A450 [3]: 0.055 OD | A450 [4]: 0.529 OD | A450 [5]: 0.063 OD | A450 [6]: 0.533 OD | A450 [7]: 0.06 OD | A450 [8]: 0.371 OD | A450 [9]: 0.502 OD | A450 [10]: 0.55 OD | A450 [11]: 0.496 OD | A450 [12]: 0.545 OD | A450 [13]: 0.338 OD | A450 [14]: 0.371 OD | EC50 (read off the curve) [15]: ~0.2 µg/mL | A450 [16]: 0.047 OD | A450 [17]: 0.069 OD | A450 [18]: 0.049 OD | A450 [19]: 0.068 OD | A450 [20]: 0.048 OD | A450 [21]: 0.068 OD | A450 [22]: 0.049 OD | A450 [23]: 0.07 OD | A450 [24]: 0.061 OD | A450 [25]: 0.051 OD | A450 [26]: 0.071 OD | A450 [27]: 0.071 OD | A450 [28]: 0.068 OD | A450 [29]: 0.086 OD | A450 [30]: 0.063 OD | A450 [31]: 0.066 OD | A450 [32]: 0.065 OD | A450 [33]: 0.063 OD | antibody concentration at which ELISA is positive [34]: < 40 ng/mL | antibody concentration at which ELISA is positive [35]: < 40 ng/mL
B1: 20H4 (antibody, rat IgG2b, V domains shown)
VH: AVQLVESGGGLVQPKESLKISCAASGFTFSNAAMYWVRQAPGKGLELLARIRTKPNNYATYHADSVKGRFTISRDDSQSMVYLHMGNLKTEDTAMYYCTADMATGDYWGPGVMVTVSS
VL: DIQMTQSPPVLSVSVGDRVTLSCKASQNINKNLDWYQQKHGEAPKPLIYSTNNLQTGVPSRFSGSGSGTDYTLTISSLQPEDVATYYCYQYKSAWTFGGGTKLELR
notes: also called clone 20H4; rat 20H4
